# Laboratory results taken from PMC11580892.
# T1: TRPV2-MBP (wild-type TRPV2 with an N-terminal maltose binding protein tag), Q9WUD2
# T1 chain: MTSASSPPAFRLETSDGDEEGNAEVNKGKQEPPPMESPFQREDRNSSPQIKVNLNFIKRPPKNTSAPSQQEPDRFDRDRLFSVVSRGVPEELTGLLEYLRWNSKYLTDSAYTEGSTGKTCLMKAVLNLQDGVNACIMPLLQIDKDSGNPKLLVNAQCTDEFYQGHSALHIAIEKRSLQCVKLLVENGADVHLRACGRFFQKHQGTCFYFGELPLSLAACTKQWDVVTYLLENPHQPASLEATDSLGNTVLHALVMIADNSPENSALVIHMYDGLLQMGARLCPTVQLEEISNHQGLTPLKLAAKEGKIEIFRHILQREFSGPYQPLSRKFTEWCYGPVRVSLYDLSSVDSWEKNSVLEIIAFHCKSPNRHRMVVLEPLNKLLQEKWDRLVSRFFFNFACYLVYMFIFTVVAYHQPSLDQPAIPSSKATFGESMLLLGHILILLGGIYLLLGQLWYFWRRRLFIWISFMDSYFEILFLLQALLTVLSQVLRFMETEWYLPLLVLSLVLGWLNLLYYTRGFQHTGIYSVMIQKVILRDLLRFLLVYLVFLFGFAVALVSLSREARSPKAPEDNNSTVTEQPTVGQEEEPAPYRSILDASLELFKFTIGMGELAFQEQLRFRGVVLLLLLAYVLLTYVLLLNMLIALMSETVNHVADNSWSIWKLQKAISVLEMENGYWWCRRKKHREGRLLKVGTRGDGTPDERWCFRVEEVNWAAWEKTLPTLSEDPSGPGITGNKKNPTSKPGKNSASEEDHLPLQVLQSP
# Target: T1, TRPV2-MBP (wild-type TRPV2 with an …)
# Assay: SEC
# Details: remark: other sources report otherwise
binder,measurement,value
"TRPV2-MBP (wild-type TRPV2 with an N-terminal maltose binding protein tag), Q9WUD2 1-761 (natural protein) MTSASSPPAFRLETSDGDEEGNAEVNKGKQEPPPMESPFQREDRNSSPQIKVNLNFIKRPPKNTSAPSQQEPDRFDRDRLFSVVSRGVPEELTGLLEYLRWNSKYLTDSAYTEGSTGKTCLMKAVLNLQDGVNACIMPLLQIDKDSGNPKLLVNAQCTDEFYQGHSALHIAIEKRSLQCVKLLVENGADVHLRACGRFFQKHQGTCFYFGELPLSLAACTKQWDVVTYLLENPHQPASLEATDSLGNTVLHALVMIADNSPENSALVIHMYDGLLQMGARLCPTVQLEEISNHQGLTPLKLAAKEGKIEIFRHILQREFSGPYQPLSRKFTEWCYGPVRVSLYDLSSVDSWEKNSVLEIIAFHCKSPNRHRMVVLEPLNKLLQEKWDRLVSRFFFNFACYLVYMFIFTVVAYHQPSLDQPAIPSSKATFGESMLLLGHILILLGGIYLLLGQLWYFWRRRLFIWISFMDSYFEILFLLQALLTVLSQVLRFMETEWYLPLLVLSLVLGWLNLLYYTRGFQHTGIYSVMIQKVILRDLLRFLLVYLVFLFGFAVALVSLSREARSPKAPEDNNSTVTEQPTVGQEEEPAPYRSILDASLELFKFTIGMGELAFQEQLRFRGVVLLLLLAYVLLTYVLLLNMLIALMSETVNHVADNSWSIWKLQKAISVLEMENGYWWCRRKKHREGRLLKVGTRGDGTPDERWCFRVEEVNWAAWEKTLPTLSEDPSGPGITGNKKNPTSKPGKNSASEEDHLPLQVLQSP",stoichiometry N,4
